From paper PMC6701106
Blank lines part the entries; values can stand above or below the binder they belong to. Positions of bridges follow the written chain, without caps; N, C: chain ends. No end group written: not given here.

Biological target: mAb3F3 (mouse)
Test: SPR; Biacore T200; antibodies injected for 60 s at 10 μl/min in the active flow cell; BSA conjugated peptide antigens flowed at 1.25 to 20 nM

- Kd: 0.00533 µM
- koff: 0.00342 s⁻¹
- kon: 641000 M⁻¹ s⁻¹
B1: BSA conjugated Mat-Loop (human Prss14/ST14 aa604-627 plus C-terminal cysteine, circular 25mer) (peptide)
peptide: CGLRSFTRQARVVGGTDADEGEWPC
modifications: disulfide 1-25; also: conjugated to BSA

- Kd: 0.406 µM
- koff: 0.0105 s⁻¹
- kon: 25900 M⁻¹ s⁻¹
B2: Mat-Linear (human Prss14/ST14 aa604-627, linear 24mer) (peptide)
peptide: CGLRSFTRQARVVGGTDADEGEWP
